Patent US8124349B2, “Toll-like receptor assays” (University of Massachusetts, priority 2003, dated 2012)

B1: PorinB: the protein PorinB from Neisseria meningitidis (protein)
chain: DVTLYGTIKAGVETSRSVFHQNGQVTEVTTATGIVDLGSKIGFKGQEDLGNGLKAIWQVEQKASIAGTDSGWGNRQSFIGLKGGFGKLRVGRLNSVLKDTGDINPWDSKSDYLGVNKIAEPEARLISVRYDSPEFAGLSGSVQYALNDNAGRHNSESYHAGFNYKNGGFFVQYGGAYKRHHQVQEGLNIEKYQIHRLVSGYDNDALYASVAVQQQDAKLTDASNSHNSQTEVAATLAYRFGNVTPRVSYAHGFKGLVDDADIGNEYDQVVVGAEYDFSKRTSALVSAGWLQEGKGENKFVATAGGVGLRHKF

Columns and labels:
[1] = biological target: T1, TLR9^YFP (Homo sapiens, UniProt Q9NR96); test: Competition plate assay: TLR9^YFP binding to plate-bound biotinylated CpG-DNA 2006 in presence of competitor; conditions: plates coated with 0.3 μM biotin-CpG-DNA 2006; competitor added to TLR9^YFP lysate; FIGS. 5A-D
T1 construct: expressed in transfected cells; host or cells: HEK cells stably expressing TLR9^YFP, used as cellular lysate
T1 sequence (Q9NR96 26-1032): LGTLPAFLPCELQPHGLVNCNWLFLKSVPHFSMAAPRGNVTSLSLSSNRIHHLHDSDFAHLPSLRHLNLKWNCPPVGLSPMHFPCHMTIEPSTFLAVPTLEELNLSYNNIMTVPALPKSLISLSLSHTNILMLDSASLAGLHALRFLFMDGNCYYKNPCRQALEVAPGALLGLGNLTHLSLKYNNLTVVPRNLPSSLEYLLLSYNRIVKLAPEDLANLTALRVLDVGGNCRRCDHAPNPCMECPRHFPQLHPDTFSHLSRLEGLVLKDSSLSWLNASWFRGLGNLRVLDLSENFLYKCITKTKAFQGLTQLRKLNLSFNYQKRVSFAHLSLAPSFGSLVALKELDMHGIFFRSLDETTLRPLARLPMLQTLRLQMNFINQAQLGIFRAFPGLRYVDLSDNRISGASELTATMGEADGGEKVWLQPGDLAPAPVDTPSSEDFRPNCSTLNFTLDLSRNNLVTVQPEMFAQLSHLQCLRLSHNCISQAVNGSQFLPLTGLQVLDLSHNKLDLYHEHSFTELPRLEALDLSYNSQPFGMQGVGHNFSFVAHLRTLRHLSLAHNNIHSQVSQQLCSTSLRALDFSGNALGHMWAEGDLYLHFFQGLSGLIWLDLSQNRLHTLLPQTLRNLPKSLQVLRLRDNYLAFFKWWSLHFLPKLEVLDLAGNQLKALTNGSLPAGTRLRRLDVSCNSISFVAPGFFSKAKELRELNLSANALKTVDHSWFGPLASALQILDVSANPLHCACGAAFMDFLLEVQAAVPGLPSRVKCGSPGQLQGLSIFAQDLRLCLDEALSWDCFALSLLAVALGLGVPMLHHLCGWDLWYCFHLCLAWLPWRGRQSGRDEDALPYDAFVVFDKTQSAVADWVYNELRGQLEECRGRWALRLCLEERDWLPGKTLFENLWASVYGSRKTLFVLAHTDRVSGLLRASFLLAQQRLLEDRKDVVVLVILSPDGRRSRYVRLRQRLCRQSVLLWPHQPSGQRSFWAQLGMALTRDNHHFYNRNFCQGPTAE
Excerpt: This assay can be adapted for use in drug-screening applications. For example, the interaction of TLR9 with CpG-DNA reflects a clinically important receptor/ligand interaction since a variety of autoimmune diseases are thought to be based on the interaction of DNA-antibody complexes with this receptor (Leadbetter et al., 2002, Nature 416:603-607). Thus, antagonists for this interaction are useful for the development of novel anti-inflammatory drugs. To examine the application of this assay to the identification of such compounds (e.g., compounds that increase or decrease the interaction) and so are potential drugs for ameliorating TLR-related disorders, a competition assay was developed that was based on the basic plate assay described above. The competition assay was performed essentially as described above for the plate assay. In addition, non-biotinylated CpG-DNA (“cold ligand”) or other compounds that interfere with TLR9 signaling (R848 or bacterial DNA) were added to the TLR9-containing lysates. The ability of the various compounds to inhibit binding of TLR9^YFP to the plate-bound biotinylated CpG-DNA was then evaluated.
In the assay, NeutrAvidin™ plates (Pierce) were coated with 0.3 μM biotin-CpG-DNA 2006 as described above. […]

[2] = biological target: T2, TLR9 (Homo sapiens, UniProt Q9NR96); test: TLR9 signaling in TLR9-expressing HEK cells; type: cell-based
T2 construct: expressed in transfected cells; host or cells: HEK293 cells stably expressing TLR^FP
T2 sequence (Q9NR96 26-1032): T1 sequence (Q9NR96 26-1032)
Description: Cellular activation was assessed by NF-κB-luciferase reporter assay. Briefly, HEK293 cells that stably express a TLR^FP or empty vector (pcDNA) were seeded into 96-well tissue culture plates at a density of 2×10^4 cells/well. The following day, cells were transiently transfected with luciferase reporter genes using Genejuice (Novagen) per the manufacturer's recommendations. In order to assess NF-κB activation, an NF-κB-luciferase reporter gene consisting of an artificial promoter composed of a multimer of five NF-κB sites driving the firefly luciferase gene, was co-transfected with a constitutively active Renilla-luciferase reporter gene (Promega, Madison, Wis.).

[3] = biological target: T3, TLR2:Fc (Homo sapiens, UniProt O60603); test: Cell-free ELISA: plated TLR2:Fc probed with biotinylated ligand; type: binding; conditions: FIG. 8B
T3 construct: a fusion protein consisting of the extracellular domain of TLR2 and the mouse Fc portion of immunoglobulin G, isotype 2a
Description: (§1) Briefly, various TLR2 ligands were plated on plastic in carbonate buffer pH 9 for two hours at different concentrations (X axis) in duplicate points. After washing (PBS-0.05% Tween 20), a fusion protein consisting of the extracellular domain of TLR2 and the mouse Fc portion of immunoglobulin G, isotype 2a (TLR2:Fc, see U.S. Provisional Patent Application Ser. No. 60/598,774), was added at 1 mg/ml (0.1 mg/well).
(§2) In a similar setting, the TLR2:Fc fusion protein and the related TLR4:Fc, were plated on plastic and the biotinylated ligand used to probe the wells. The TLR2 bound biotinylated protein was reveled using a HRP conjugated anti biotin polyclonal antiserum (NEB).

[4] = biological target: T4, TLR4:Fc (Homo sapiens, UniProt O00206); test: Cell-free ELISA: plated TLR4:Fc probed with biotinylated ligand; type: binding; conditions: FIG. 8B
T4 construct: the TLR2:Fc fusion protein and the related TLR4:Fc, were plated on plastic
Description: as §1, §2

[5] = biological target: T5, TLR2 (Homo sapiens, UniProt O60603); test: NF-κB luciferase reporter assay in 293 cells stably expressing TLR2; type: cell-based; conditions: 0.01-10 μg/ml stimulant; FIG. 7B
T5 construct: expressed in transfected cells; host or cells: 293 (HEK 293) cells stably expressing TLR2
Description: 293 cells stably expressing TLR4/MD-2 (as described in Visintin et al., 2003, J. Biol. Chem., 278(48):48313-48320) or TLR2 were stimulated using lipopolysaccharide (LPS) or PorinB, and the extent of activation measured as the activation of a NF-κB-dependent reporter gene encoding for the Luciferase gene. To measure NF-κB activation, 2 μg of a reporter plasmid in which NF-κB drives the synthesis of luciferase was transiently cotransfected with 5 μg of the indicated cDNA by lipofection (GeneJuice) in 10-cm tissue culture dishes following the manufacturer's recommendations. The following morning, cells were seeded at a density of 50,000 cells/well in a 96-well plate, allowed to recover for 5 hours, and stimulated as indicated between 6 and 18 hours. Luciferase activity was measured with a plate reader luminometer (Victor^2, PerkinElmer Life Sciences) using chemicals provided with the luciferase assay system (Promega, Madison, Wis.). All data are presented as the means ±S.D. of triplicate well readings, normalized to a value of 1.0 in comparison with an unstimulated negative control.

T4 sequence (O00206 24-631 limits assumed, species assumed): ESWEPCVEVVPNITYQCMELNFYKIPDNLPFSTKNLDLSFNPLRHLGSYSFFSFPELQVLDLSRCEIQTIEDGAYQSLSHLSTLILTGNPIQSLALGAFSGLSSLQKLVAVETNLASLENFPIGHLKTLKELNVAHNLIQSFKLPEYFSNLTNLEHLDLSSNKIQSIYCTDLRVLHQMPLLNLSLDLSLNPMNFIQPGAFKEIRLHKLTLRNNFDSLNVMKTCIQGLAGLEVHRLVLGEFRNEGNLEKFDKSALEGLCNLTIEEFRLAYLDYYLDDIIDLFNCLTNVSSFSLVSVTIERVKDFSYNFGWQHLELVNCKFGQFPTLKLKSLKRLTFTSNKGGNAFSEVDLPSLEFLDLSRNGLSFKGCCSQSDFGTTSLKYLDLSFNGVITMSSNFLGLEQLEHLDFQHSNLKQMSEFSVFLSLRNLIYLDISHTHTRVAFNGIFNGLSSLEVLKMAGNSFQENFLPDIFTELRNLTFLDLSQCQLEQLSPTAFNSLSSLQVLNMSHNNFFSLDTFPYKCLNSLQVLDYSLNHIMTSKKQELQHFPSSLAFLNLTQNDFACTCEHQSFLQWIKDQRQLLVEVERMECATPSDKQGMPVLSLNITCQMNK
T3 sequence (O60603 21-588 limits assumed, species assumed): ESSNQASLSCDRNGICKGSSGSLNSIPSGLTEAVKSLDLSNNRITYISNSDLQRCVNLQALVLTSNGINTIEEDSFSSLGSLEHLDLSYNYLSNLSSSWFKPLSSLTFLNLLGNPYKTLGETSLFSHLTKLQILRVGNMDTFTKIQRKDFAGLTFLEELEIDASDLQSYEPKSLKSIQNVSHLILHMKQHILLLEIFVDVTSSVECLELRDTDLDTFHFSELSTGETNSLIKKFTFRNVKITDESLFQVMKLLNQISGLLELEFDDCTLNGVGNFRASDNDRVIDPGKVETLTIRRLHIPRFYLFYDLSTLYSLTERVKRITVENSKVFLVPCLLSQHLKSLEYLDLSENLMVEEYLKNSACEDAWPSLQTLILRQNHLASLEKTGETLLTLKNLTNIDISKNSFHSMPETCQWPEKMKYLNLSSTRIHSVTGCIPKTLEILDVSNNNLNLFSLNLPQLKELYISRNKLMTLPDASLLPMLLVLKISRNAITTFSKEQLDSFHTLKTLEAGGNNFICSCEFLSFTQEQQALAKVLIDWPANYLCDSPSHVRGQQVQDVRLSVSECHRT
T5 sequence (O60603 21-784, species assumed): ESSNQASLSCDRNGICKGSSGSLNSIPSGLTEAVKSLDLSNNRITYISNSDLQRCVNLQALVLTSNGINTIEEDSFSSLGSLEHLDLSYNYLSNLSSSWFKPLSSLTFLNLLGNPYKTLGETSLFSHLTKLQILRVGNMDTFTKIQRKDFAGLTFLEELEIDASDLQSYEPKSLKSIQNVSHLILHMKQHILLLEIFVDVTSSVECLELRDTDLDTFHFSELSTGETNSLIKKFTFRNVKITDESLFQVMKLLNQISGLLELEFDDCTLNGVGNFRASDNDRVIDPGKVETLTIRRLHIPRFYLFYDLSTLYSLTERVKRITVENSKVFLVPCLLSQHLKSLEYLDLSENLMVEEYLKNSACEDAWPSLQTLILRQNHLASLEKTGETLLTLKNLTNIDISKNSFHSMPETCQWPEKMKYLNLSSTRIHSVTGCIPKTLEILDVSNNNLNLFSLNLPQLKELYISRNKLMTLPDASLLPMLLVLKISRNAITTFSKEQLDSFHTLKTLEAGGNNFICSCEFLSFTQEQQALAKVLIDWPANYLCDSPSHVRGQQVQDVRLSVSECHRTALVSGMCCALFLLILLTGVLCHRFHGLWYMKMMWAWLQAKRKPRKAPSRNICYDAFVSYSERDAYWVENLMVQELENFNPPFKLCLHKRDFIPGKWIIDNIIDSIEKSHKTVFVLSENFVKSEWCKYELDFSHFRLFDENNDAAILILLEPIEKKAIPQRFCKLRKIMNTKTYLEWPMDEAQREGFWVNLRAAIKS
T5 sequence (Q15399 25-786 partner, species assumed): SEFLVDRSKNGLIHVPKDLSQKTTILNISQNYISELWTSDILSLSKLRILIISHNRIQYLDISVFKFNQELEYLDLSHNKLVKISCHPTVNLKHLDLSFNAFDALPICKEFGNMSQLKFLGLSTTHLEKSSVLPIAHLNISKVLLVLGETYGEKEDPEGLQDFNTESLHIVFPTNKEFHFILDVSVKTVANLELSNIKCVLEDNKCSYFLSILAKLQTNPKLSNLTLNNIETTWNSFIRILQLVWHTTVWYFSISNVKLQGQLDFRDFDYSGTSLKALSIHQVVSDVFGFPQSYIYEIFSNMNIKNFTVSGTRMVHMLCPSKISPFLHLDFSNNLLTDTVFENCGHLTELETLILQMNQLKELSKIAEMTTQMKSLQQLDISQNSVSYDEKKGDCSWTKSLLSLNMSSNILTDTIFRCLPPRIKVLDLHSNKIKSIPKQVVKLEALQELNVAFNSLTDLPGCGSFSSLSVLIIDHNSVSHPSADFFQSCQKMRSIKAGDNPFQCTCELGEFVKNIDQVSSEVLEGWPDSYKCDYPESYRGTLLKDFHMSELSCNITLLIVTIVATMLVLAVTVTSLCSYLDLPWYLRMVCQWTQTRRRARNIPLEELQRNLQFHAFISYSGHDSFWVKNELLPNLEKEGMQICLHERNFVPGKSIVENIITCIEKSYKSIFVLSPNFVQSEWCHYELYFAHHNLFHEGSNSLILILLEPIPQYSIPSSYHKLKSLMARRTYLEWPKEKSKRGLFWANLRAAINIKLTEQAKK

Row | Molecule | Inhibition of TLR9 binding to biotinylated immobilized CpG-DNA [1] | Inhibition of TLR9 signaling [2] | Binding of biotinylated ligand to plated TLR2:Fc [3] | Binding of biotinylated ligand to plated TLR4:Fc [4] | NF-κB reporter activation in TLR2 expressing cells [5]
1 | CCOCc1nc2c(N)nc3ccccc3c2n1CC(C)(C)O [R848] | did not interfere with the binding of TLR9 to CpG-DNA | inhibited TLR9 signaling in a dose dependent manner |  |  | 
2 | bacterial alkaline phosphatase (BAP): bacterial alkaline phosphatase |  |  | bind to TLR2:Fc | not to TLR4:Fc | 
3 | B1 |  |  | specifically bound | did not | efficiently activates
